B1: 1.24b (VHH)
VHH: QVTLKESGGGLVKPGGSLRLSCAASGFTFSDYDMYWIRQAPGKGLEWVSYISRGGSVTYYADSVKGRFTISRDNAKNALYLQMNSLRAEDMAVYFCATEAPLRLGETPHAAFDIWGQGTMVTVSS
B2: 1.33b (VHH)
VHH: B1 VHH with V2I, I37V
B3: 1.28b (VHH)
VHH: B1 VHH with V2I
B4: 1.52a (VHH)
VHH: EVQLLESGGGVVRPGGSLRLSCAASGFTFDDYGMSWVRQPPGKGLEWVSGISRNGGSAGYSDSAKDRFTISRDNAKNSLYLQMNSLRADDTAMYYCAREKYSSGWSYDDFDIWGQGTMVTVSS
B5: 1.55a (VHH)
VHH: B4 VHH with L5V
B6: 1.57a (VHH)
VHH: B4 VHH with E1Q, L5V, P40A, A58T, S61T, D62A, A64V
B7: 1.54a (VHH)
VHH: B4 VHH with E1Q, L5V
B8: 1.53a (VHH)
VHH: B4 VHH with E1Q, L5V, P40S
B9: 1.56a (VHH)
VHH: QVQLVESGGGVVRLGGSLRLSCAASGFSFVDYGMSWVRQAPGQGLEWVSGISRNGGSTGYADSVKDRFTISRDNAKNTLYLQMNSLRAEDTALYYCARDPYSSGWSYDSFDIWGQGTMVTVSS
B10: 1.25b (VHH)
VHH: QVTLKESGGGLVKPGGSLRLSCAASGFTFSDYYMSWFRQAPGKEREWISFISSSGSTTYYADSVKGRFTISRDNAKNSLYLQMNSLRAEDTAVYYCAREAPLRLGESPHDAFDFWGQGTMVTVSS
B11: 1.12b (VHH)
VHH: EVQLLESGGGVVKPGGSLRLSCAASGFTFSDYYMGWIRQAPGKGLEWISYISSSGSTIYYADSVKGRFTISRDNAKNSLYLQMNSLRAEDTAVYYCAREAPLRLGESPHDAFDIWGQGTMVTVSS
B12: 1.15b (VHH)
VHH: B11 VHH with E1Q, L5V, V11L, Y32N, Y33S, G35S, I48V, S85T, R98K
B13: 1.26b (VHH)
VHH: B11 VHH with E1Q, Q3T, L5K, V11L, Y32N, Y33S, G35S, I48V, S85T, R98K
B14: 1.40b (VHH)
VHH: EVQLVESGGGLVKPGGSLRLSCAASGFTFSDSSMSWIRQAPGRGLEWISYISSGGGIIYYTDSVKGRFTISRDNAKNSLYLQMNSLRVEDTAVYYCAKEAPLRLGESPHDAFDIWGHGTMVTVSS
B15: 1.84a (VHH)
VHH: EVQLVESGGGVVRPGGSLRLSCAASGFTFDDYANSWVRQAPGKGLEWVSGITWNGGSTGYADSVKDRFTISRDNAKNSLYLQMNSLRAEDTALYYCVRDKYSYAWSYDGFDIWGQGTMVTVSS
B16: 1.102a (VHH)
VHH: B15 VHH with N34M, G109V
B17: 1.89a (VHH)
VHH: B15 VHH with N34E
B18: 1.92a (VHH)
VHH: B15 VHH with N34F
B19: 1.100a (VHH)
VHH: B15 VHH with N34M, N54K
B20: 1.91a (VHH)
VHH: B15 VHH with N34R
B21: 1.88a (VHH)
VHH: B15 VHH with N34G
B22: 1.96a (VHH)
VHH: B15 VHH with N34M, N54P
B23: 1.101a (VHH)
VHH: B15 VHH with N34M, N54R
B24: 1.85a (VHH)
VHH: B15 VHH with N34D
B25: 1.98a (VHH)
VHH: B15 VHH with N34M, N54L
B26: 1.90a (VHH)
VHH: B15 VHH with N34W
B27: 1.95a (VHH)
VHH: B15 VHH with N34M, N54S
B28: 1.97a (VHH)
VHH: B15 VHH with N34M, N54I
B29: 1.86a (VHH)
VHH: B15 VHH with N34S
B30: 1.94a (VHH)
VHH: B15 VHH with N34M, N54T
B31: 1.93a (VHH)
VHH: B15 VHH with N34V
B32: 1.87a (VHH)
VHH: B15 VHH with N34L
B33: 1.99a (VHH)
VHH: B15 VHH with N34M, D66G

Positions count from the first letter of the chain named.

This experiment deals with T1, human PD-1 expressed on cells (CHO TREX human PD1 cell line, full-length human PD-1 sequence) (human, UniProt Q15116 21-288).
T1 construct: Also used for human PD-1 on Jurkat reporter cells, on PathHunter cells and on PHA-stimulated human CD4+ T cells; also called CHO human PD1 cells; CHO human PD-1 cells
T1 sequence (Q15116 21-288): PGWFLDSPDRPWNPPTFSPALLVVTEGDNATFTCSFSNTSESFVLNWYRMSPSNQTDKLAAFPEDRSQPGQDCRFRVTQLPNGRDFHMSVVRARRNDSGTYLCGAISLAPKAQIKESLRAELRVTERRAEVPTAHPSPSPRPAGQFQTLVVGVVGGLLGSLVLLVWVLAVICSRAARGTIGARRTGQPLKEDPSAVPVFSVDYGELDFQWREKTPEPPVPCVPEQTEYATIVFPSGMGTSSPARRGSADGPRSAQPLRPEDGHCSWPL
In words: worded summary of the screens.
For B1, the binding result is given as “binds”.

B2: the binding result was “binds”.

In the case of B3, the binding result is recorded as “binds”.

For the molecule B4, the binding result was “binds”.

On to B5, for which the binding result was “binds”.

For the molecule B6, the binding result was “binds”.

B7: the binding result is listed as “binds”.

Turning to B8, the binding result was “binds”.

Regarding B9, the binding result is on record as “binds”.

As for B10, the binding result is given as “binds”.

As to B11, the binding result is “binds”.

For B12, the binding result is on record as “binds”.

For B13, the binding result is reported as “binds”.

For B14, the binding result is on record as “binds”.

On to B15, for which the binding result is “binds”.

Consider B16, for which the binding result was “binds”.

Turning to B17, the binding result is “binds”.

As for B18, the binding result is “binds”.

For B19, the binding result is “binds”.

B20: the binding result is listed as “binds”.

As to B21, the binding result is “binds”.

For the molecule B22, the binding result was “binds”.

As to B23, the binding result is reported as “binds”.

As to B24, the binding result is recorded as “binds”.

Take B25: the binding result is recorded as “binds”.

B26: the binding result was “binds”.

Consider B27, for which the binding result is recorded as “binds”.

Regarding B28, the binding result was “binds”.

Turning to B29, the binding result is “binds”.

As for B30, the binding result was “binds”.

With B31, the binding result is “binds”.

For the molecule B32, the binding result is “binds”.

As to B33, the binding result is reported as “binds”.
